# According to article PMC5643538, “Direct visualization of critical hydrogen atoms in a pyridoxal 5′-phosphate enzyme” (Nature Communications, 2017):
# B1: recombinant porcine cytosolic aspartate aminotransferase (enzyme)
# chain: MAPPSVFAEVPQAQPVLVFKLIADFREDPDPRKVNLGVGAYRTDDCQPWVLPVVRKVEQRIANDSSLNHEYLPILGLAEFRTCASRLALGDDSPALQEKRVGGVQSLGGTGALRIGAEFLARWYNGTNNKDTPVYVSSPTWENHNGVFTTAGFKDIRSYRYWDTEKRGLDLQGFLSDLENAPEFSIFVLHACAHNPTGTDPTPEQWKQIASVMKRRFLFPFFDSAYQGFASGNLEKDAWAIRYFVSEGFELFCAQSFSKNFGLYNERVGNLTVVAKEPDSILRVLSQMEKIVRVTWSNPPAQGARIVARTLSDPELFHEWTGNVKTMADRILSMRSELRARLEALKTPGTWNHITDQIGMFSFTGLNPKQVEYLINEKHIYLLPSGRINMCGLTTKNLDYVATSIHEAVTKIQ
# modifications: pyridoxal 5'-phosphate covalently linked to K258 (internal aldimine; chain B at pH 7.5, both chains at pH 4.0); in chain A at pH 7.5 PLP is linked to alpha-methylaspartate (external aldimine) and K258 is free; protein deuterated
# notes: aspartate aminotransferase, cytosolic, pig; the construct and its tag are not described here; also called AAT; source: E. coli T7 Express LacIQ, deuterated (minimal medium with 100% D2O), purified (Ni-NTA)
# Target: the molecule itself
# Test: crystal structure; joint neutron (2.2 Å) and X-ray (2.0 Å) structure at room temperature, pH 7.5, crystal soaked with 300 mM alpha-methyl-DL-aspartate; homodimer in one asymmetric unit
protein,measurement,value
B1,stoichiometry N,2
